This is an account of results in the supplement of paper PMC9170038.

In this data set the test system is MS2 coat protein. The data set can be described thus: apparent KD of MS2 coat protein; designed switch direction (-1 OFF switch, 1 ON switch): -1; higher = weaker reporter binding. In a few lines: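 Designed RNA switches with common flanks were transcribed on Illumina chips by stalled E. coli RNA polymerase and titrated with SNAP-549-labelled MS2 coat protein, from 0.7 or 1.5 nM doubling to 3 µM, in Tris-HCl pH 7.5 buffer with KCl, MgCl2, BSA, DTT, tRNA and Tween-20. Steps lasted 0.8–1.5 h (lowest) to 10–20 min (highest). Titrations ran without input, with 200 uM small-molecule ligand, or with an oligonucleotide input. Normalised cluster fluorescence was curve-fitted, and apparent KD is the per-design median over clusters.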

Where [1] appears, read: Eterna round: R95, input ligand: FMN 200 uM.
Setting [2] is: Eterna round: R95, input ligand: microRNA oligo, concentration not stated.
[3] abbreviates: Eterna round: R95, input ligand: none.
The mark [4] stands for this setting: input ligand: microRNA oligo, concentration not stated.

On to “GGAUUACAUGAGGAUCACCCAUGUCAGGAUAUACGAUCAUAUGCCGAAAGGCAUAUGAGUAGAAGGGACAAUAU [AK-MS2ROC-r4-exclusion1-2.0] (Eterna round: R97, puzzle: Exclusion 1)”, for which the “apparent KD of MS2 coat protein” value was 0.0462 µM (input ligand: FMN 200 uM) and 0.0361 µM (input ligand: none).
Take “UAAUACAAGUAGAGAUUCUACAUGAGGAUCACCCAUGUGCUCGUCUUAUAAAGUACUAUCACGAAAGUGAUAGUACA [Mat - Sensor v3 - turn-off var 1 - Eli Mod - D97] (puzzle: Sensor v3, turn-off variant 1)”: the “apparent KD of MS2 coat protein” value came to 0.023 µM under setting [1], 0.322 µM under setting [2] and 0.0197 µM under setting [3].
For the sequence “GUUUCACAUGAGGAUCACCCAUGUGAGGAUAUGUUAUUAAUGGCGAUAGUUAUUGGUGGCAGAAGGCGCGUGAU [JR_Exc1_Sub010] (Eterna round: R97, puzzle: Exclusion 1)”, the “apparent KD of MS2 coat protein” value reads like this: (input ligand: FMN 200 uM) 0.115 µM; (input ligand: none) 0.0502 µM.
Take “AAACCGCAUGUCAGGAUAUCCAGUCCGACUAGCUAGGAGAAGGGACAUGAGGAUCACCCAUGUUUCAUGGCUCG [Anveonat] (puzzle: Brourd's mod of Exclusion 4)”: the “apparent KD of MS2 coat protein” value came out at 0.0376 µM under setting [1], 0.0196 µM under setting [2] and 0.019 µM under setting [3].
For the sequence “AAGGGUACUUUCAGAACGACAUGAGGAUCACCCAUGUAGACUGAGGAUAUCUACUUCUAAGGACGGGAGAAGGCAGUGUAAUGU [Ex NG3 #72] (Eterna round: R96, puzzle: Exclusion NG 3)”, the “apparent KD of MS2 coat protein” value by setting is: (input ligand: FMN 200 uM) 0.0114 µM; under setting [4], 0.0107 µM; (input ligand: none) 0.0135 µM.
On to “AAUUUACAUGAGGAUCACCCAUGUGAGGAUAUAUGUUUAAAUUUUUUUUUUUUUUUUCAUAGAAGGCGCGUGAU [JR_Exc1_Sub048] (Eterna round: R97, puzzle: Exclusion 1)”, for which the “apparent KD of MS2 coat protein” value amounted to 0.0173 µM (input ligand: FMN 200 uM) and 0.0316 µM (input ligand: none).
In the case of “UACAUGAGGAUCACCCAUGUUUUGUCGUGUAUGGUAUUUAUCUAGGAUAUCAUAUUAUUUAGUUAUGAGAAGGAGAAUAUUAAU [JMF's solution 80] (Eterna round: R96, puzzle: Exclusion NG 3)”, the “apparent KD of MS2 coat protein” value (input ligand: FMN 200 uM) stood at 0.0249 µM, the “apparent KD of MS2 coat protein” value under setting [4] came out at 0.0127 µM and the “apparent KD of MS2 coat protein” value (input ligand: none) stood at 0.0193 µM.
Consider “GGGCCCGGAGGAUAUACAAUGCGCGCGCGAAAGUGUGUGUUACAUGAGGAUCACCCAUGUAGAAGGCCGGGCCC [-39.9, -36.7 kcal A 24%, 6,0] (Eterna round: R97, puzzle: Exclusion 2)”, for which the “apparent KD of MS2 coat protein” value reads like this: (input ligand: FMN 200 uM) 0.0394 µM; (input ligand: none) 0.0167 µM.
Take “UUUUAACAUGAGGAUCACCCAUGUGAGGAUAUCGAAAUUUAUAUUAAUAUUUAUAUAUCGAGAAGGCACAUUUU [JMF 56] (puzzle: Exclusion 1)”: the “apparent KD of MS2 coat protein” value under setting [2] turned out to be 0.117 µM.
Turning to “GUUGUUCGGUAGGAUAUGAAACAGCAGAGAUUGUCAGAAGGGCCGACAUGAGGAUCACCCAUGUGUGCGAAAGC [Eternabot (L1) Solution 26] (Eterna round: R97, puzzle: Exclusion 6)”, the “apparent KD of MS2 coat protein” value is 0.0351 µM (input ligand: FMN 200 uM) and 0.05 µM (input ligand: none).
As for “GUAUCGUGAGGAUAUCAUGAUUGACUUUUAUUUUGUCAGCGUGAGAAGGCACAUGAGGAUCACCCAUGUGAUUA [Ex4 - 3 - 8] (puzzle: Exclusion 4)”, the “apparent KD of MS2 coat protein” value under setting [2] turned out to be 0.0232 µM.
“AUGUUGUCAGGAUAUCUUACAUAACAAUCGUUGUUACCAUUGGAGAAGGGACAUGAGGAUCACCCAUGUUAACC [tap-tap-tappy45] (Eterna round: R97, puzzle: Exclusion 4)”: the “apparent KD of MS2 coat protein” value (input ligand: FMN 200 uM) was found to be 0.0239 µM and the “apparent KD of MS2 coat protein” value (input ligand: none) was found to be 0.0215 µM.
As for “UUAACGUGGGCGUCCCACAGCAAGCUUUUUGCUCGUUUAACAUGAGGAUCACCCAUGUCGCUGCGGGAUCCCUAUGA [Abeisat] (puzzle: Sensor v3, turn-off variant 2)”, the “apparent KD of MS2 coat protein” value was 0.0135 µM under setting [1], 0.0131 µM under setting [2] and 0.0116 µM under setting [3].
“GCAGCAUAGUCCAAAUAGGACAUACAUGAGGAUCACCCAUGUCAGGAUAUGGUCUGGAUUACAGGCCAGAAGGGACGUAGCUGC [Eli exng3 - 004] (Eterna round: R96, puzzle: Exclusion NG 3)”: the “apparent KD of MS2 coat protein” value is, setting by setting: (input ligand: FMN 200 uM) 0.0259 µM; under setting [4], 0.0209 µM; (input ligand: none) 0.0236 µM.
As for “GGUGAAGCAGGAUAUGUGCUGGCAUACAUGAGGAUCACCCAUGUCAUGUAGGAACCACGUAUAGAAGGGCUUCACC [Exclusion 5 (FMN-MS2 slide v.10)] (Eterna round: R97, puzzle: Exclusion 5)”, the “apparent KD of MS2 coat protein” value worked out at 0.0507 µM (input ligand: FMN 200 uM) and 0.0281 µM (input ligand: none).
In the same order, the values of “GGUCGUUUAGUGAGGAUAUGCAGCGUCAUAGCGCAGCAGAAGGCACAUGAGGAUCACCCAUGUCCUCCCAAAAG [Eternabot (L1) Solution 9] (Eterna round: R97, puzzle: Brourd's mod of Exclusion 4)” are 0.253 µM and 0.0189 µM.
For the sequence “CAGCUGAAAGUGAGGAUAUCUAGAGCUGCGGCUCUAGAGAAGGCACAUGAGGAUCACCCAUGUCUCAACAGCUG [BmEx4/1-A3] (Eterna round: R97, puzzle: Brourd's mod of Exclusion 4)”, the “apparent KD of MS2 coat protein” value by setting is: (input ligand: FMN 200 uM) 0.0519 µM; (input ligand: none) 0.0181 µM.
On to “CUUAUGUCAGGAUAUUAGUAGUAAAUGAAUAAAAUUAUUACUGAGAAGGGACAUGAGGAUCACCCAUGUUCCUC [Mat - Exclusion 4 - Eli Mod - D4] (Eterna round: R97, puzzle: Exclusion 4)”, for which the “apparent KD of MS2 coat protein” value (input ligand: FMN 200 uM) was found to be 0.149 µM and the “apparent KD of MS2 coat protein” value (input ligand: none) was 0.0196 µM.
In the case of “GGUUUUCUUUUCCUUUCUUACAUGAGGAUCACCCAUGUUUCUUGUCGUGCUCGCGUUGCUCGUCUGUCUGUCUGUUG [salish99_TOv1_r3_076(!)] (puzzle: Sensor v3, turn-off variant 1)”, the “apparent KD of MS2 coat protein” value by setting is: under setting [1], 0.0459 µM; under setting [2], 0.0357 µM; under setting [3], 0.0569 µM.
As for “AGAGAGUCAGGAUAUCGAAGGUAGAGAAAAGGAGAGAGGUACGAGAAGGGACAUGAGGAUCACCCAUGUAGGUG [JR_Exclusion4)Sub014] (puzzle: Exclusion 4)”, the “apparent KD of MS2 coat protein” value under setting [1] was 0.526 µM, the “apparent KD of MS2 coat protein” value under setting [2] was 0.286 µM and the “apparent KD of MS2 coat protein” value under setting [3] was found to be 0.381 µM.
As for “UAUUAGCAAGCGAGAUCCCACAUGAGGAUCACCCAUGUGCUCGCAUCCAGAAUUACUGGGUGCAAAGCUCGUCUUAU [Winner reversed engineered 8] (Eterna round: R97, puzzle: Sensor, turn-off variant 1)”, the “apparent KD of MS2 coat protein” value is, setting by setting: (input ligand: FMN 200 uM) 0.0231 µM; (input ligand: none) 0.0233 µM.
In the case of “CGGCAUGUCUGAGGAUAUCUGCACGAUUAGUGCAGAGAAGGCAGAACAUGAGGAUCACCCAUGUAGAUCAUUAACCGAUUAAUU [ENG1/7-A1] (Eterna round: R96, puzzle: Exclusion NG 1)”, the “apparent KD of MS2 coat protein” value amounted to 0.275 µM (input ligand: FMN 200 uM), 0.127 µM under setting [4] and 0.194 µM (input ligand: none).
For the sequence “CCACGACAUGAGGAUCACCCAUGUGAGGAUAUGGCCUGAAAAGCGUGAGCAGUUUCAAUCAGAAGGCGCGUGGG [salish99_ex1_r4_062] (Eterna round: R97, puzzle: Exclusion 1)”, the “apparent KD of MS2 coat protein” value was 0.162 µM (input ligand: FMN 200 uM) and 0.0622 µM (input ligand: none).
